How the values were obtained:
[1] = molecular target: CcpA (Streptococcus pneumoniae D39?) (UniProt A0A0H2ZQ65); test: EMSA; settings: Beyotime chemiluminescent EMSA kit, 5X binding buffer (composition and pH not stated), 10 ul, room temperature, 10 min then 20 min with labeled probe, 6% …
[2] = molecular target: CcpA;HPr (Streptococcus pneumoniae D39?;Streptococcus pneumoniae D39) (UniProt A0A0H2ZQ65+A0A0H2ZP52); test: EMSA; settings: Beyotime chemiluminescent EMSA kit, 5X binding buffer (composition and pH not stated), 10 ul, room temperature, 10 min then 20 min with labeled probe, 6% …

For “TACACATCTGCTTCTAAAATATTGTTAGAAAACGATTTGACTGTCCTGATCAATTTGTCATGTTCTTATTTCATTTTACTATATTTTTGGTTCGCGGGAAGTCTACTAAGATACTTAAAGATGCAGATAGTGAAAAAAGGTGTAGACATTACCGTAAAAAAGTGATATAATCGTAAGATGTTCAATGTATAGGTGTTAATCATGAGTAGACGTTTTAA (double strand) [Pcps promoter probe]”, the binding [1] was “binds” and the binding [2] was “binds”.

From article PMC13577091
